# Measurements from PMC4252516.
# Target: AbrBC, C-terminal multimerization domain of AbrB from Bacillus subtilis (residues 52-94) (Bacillus subtilis)
# Experiment: SEC
substance,measurement,value
"AbrBC, C-terminal multimerization domain of AbrB from Bacillus subtilis (residues 52-94) (domain or fragment)",stoichiometry N,2
